{"source": "paper PMC4767637", "about": "(Journal of molecular biology, 2016)", "proteins": {"B1": {"name": "Tyr-705-phosphorylated STAT3 (127-711)-His6 (domain or fragment, human, UniProt P40763 127-711, looked up)", "chain": "GQANHPTAAVVTEKQQMLEQHLQDVRKRVQDLEQKMKVVENLQDDFDFNYKTLKSQGDMQDLNGNNQSVTRQKMQQLEQMLTALDQMRRSIVSELAGLLSAMEYVQKTLTDEELADWKRRQQIACIGGPPNICLDRLENWITSLAESQLQTRQQIKKLEELQQKVSYKGDPIVQHRPMLEERIVELFRNLMKSAFVVERQPCMPMHPDRPLVIKTGVQFTTKVRLLVKFPELNYQLKIKVCIDKDSGDVAALRGSRKFNILGTNTKVMNMEESNNGSLSAEFKHLTLREQRCGNGGRANCDASLIVTEELHLITFETEVYHQGLKIDLETHSLPVVVISNICQMPNAWASILWYNMLTNNPKNVNFFTKPPIGTWDQVAEVLSWQFSSTTKRGLSIEQLTTLAEKLLGPGVNYSGCQITWAKFCKENMAGKGFSFWVWLDNIIDLVKKYILALWNEGYIMGFISKERERAILSTKPPGTFLLRFSESSKEGGVTFTWVEKDISGKTQIQSVEPYTKQQLNNMSFAEIIMGYKIMDATNILVSPLVYLYPDIPKEEAFGKYCRPESQEHPEADPGSAAPYLKTKFI", "modifications": "phosphotyrosine at 705"}}, "target": "the molecule itself", "test": "NMR"}
{"protein": "B1", "values": [{"measurement": "dH (van't Hoff, monomer-dimer equilibrium, from I568 and I654)", "value": "14.8 ± 1.1", "unit": "kcal/mol"}, {"measurement": "dH (van't Hoff, monomer-dimer equilibrium, from I653 and I711)", "value": "12.8 ± 0.5", "unit": "kcal/mol"}]}
